The values below come from paper doi:10.1101/2020.01.04.893909 (bioRxiv, 2020).

The data set deals with the molecule itself. Put plainly: SEC. Background: In gel filtration, larger molecules generally elute earlier.

B1: S. cerevisiae homologue of GAP (Rna1), recombinant (natural protein, UniProt P11745 1-407, looked up)
chain: MATLHFVPQHEEEQVYSISGKALKLTTSDDIKPYLEELAALKTCTKLDLSGNTIGTEASEALAKCIAENTQVRESLVEVNFADLYTSRLVDEVVDSLKFLLPVLLKCPHLEIVNLSDNAFGLRTIELLEDYIAHAVNIKHLILSNNGMGPFAGERIGKALFHLAQNKKAASKPFLETFICGRNRLENGSAVYLALGLKSHSEGLKVVKLYQNGIRPKGVATLIHYGLQYLKNLEILDLQDNTFTKHASLILAKALPTWKDSLFELNLNDCLLKTAGSDEVFKVFTEVKFPNLHVLKFEYNEMAQETIEVSFLPAMEKGNLPELEKLEINGNRLDEDSDALDLLQSKFDDLEVDDFEEVDSEDEEGEDEEDEDEDEKLEEIETERLEKELLEVQVDDLAERLAETEIK
With B1, the binding result is “binds”.
